We go through 5 molecules from patent US20040043420A1, “Method of identifying conformation-sensitive binding peptides and uses thereof” (priority 2003, published 2004).

Assay [1] concerns the target T1, ER β, Q92731.
T1 chain: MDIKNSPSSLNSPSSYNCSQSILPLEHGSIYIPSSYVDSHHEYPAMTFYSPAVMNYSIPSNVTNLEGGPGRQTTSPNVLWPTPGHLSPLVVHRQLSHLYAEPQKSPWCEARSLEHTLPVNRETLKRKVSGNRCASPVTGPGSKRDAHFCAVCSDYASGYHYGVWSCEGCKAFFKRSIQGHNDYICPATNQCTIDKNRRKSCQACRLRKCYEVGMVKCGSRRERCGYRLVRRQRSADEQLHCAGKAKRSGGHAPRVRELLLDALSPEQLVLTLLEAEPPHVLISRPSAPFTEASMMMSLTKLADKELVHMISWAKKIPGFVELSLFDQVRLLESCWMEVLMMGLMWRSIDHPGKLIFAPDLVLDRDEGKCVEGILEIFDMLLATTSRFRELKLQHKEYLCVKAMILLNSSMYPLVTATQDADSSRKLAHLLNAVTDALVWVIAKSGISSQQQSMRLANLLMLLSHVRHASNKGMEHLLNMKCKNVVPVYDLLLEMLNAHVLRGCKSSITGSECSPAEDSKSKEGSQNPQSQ
Nature of the assay: peptide probe binding to ERβ, all modulators.

Assay [2] concerns the target T2, ER α, P03372.
T2 chain: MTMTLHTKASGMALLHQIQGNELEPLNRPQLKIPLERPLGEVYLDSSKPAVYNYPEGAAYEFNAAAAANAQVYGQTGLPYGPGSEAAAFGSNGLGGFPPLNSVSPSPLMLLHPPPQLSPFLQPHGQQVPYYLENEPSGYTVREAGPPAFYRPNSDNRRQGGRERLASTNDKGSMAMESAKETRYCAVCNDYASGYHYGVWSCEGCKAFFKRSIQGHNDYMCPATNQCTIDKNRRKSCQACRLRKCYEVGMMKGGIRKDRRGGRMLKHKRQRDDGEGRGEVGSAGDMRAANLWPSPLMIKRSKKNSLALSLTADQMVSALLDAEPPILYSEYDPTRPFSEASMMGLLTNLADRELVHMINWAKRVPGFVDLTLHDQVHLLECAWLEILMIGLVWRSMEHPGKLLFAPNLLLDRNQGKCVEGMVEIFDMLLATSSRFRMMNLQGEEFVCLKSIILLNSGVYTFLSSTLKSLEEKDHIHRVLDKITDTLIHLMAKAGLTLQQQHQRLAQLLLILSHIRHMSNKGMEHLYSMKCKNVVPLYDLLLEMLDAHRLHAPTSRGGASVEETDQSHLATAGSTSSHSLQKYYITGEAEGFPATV
Nature of the assay: peptide probe binding to ERα, GW7604.

The target in assay [3] is T1, ER β, Q92731. Nature of the assay: peptide probe binding to ERβ, GW 7604.
Assay [4] deals with T1, ER β, Q92731. Nature of the assay: phage ELISA, 4-OH tamoxifen 1 µM. On the technique in general: In an ELISA, binding on a coated surface is turned into a signal by an enzyme label.
For assay [5], the target named is T1, ER β, Q92731. As to the kind of experiment: peptide probe binding to ERβ, 17β-Estradiol.
Assay [6] has as its target T2, ER α, P03372. As to the kind of experiment: peptide probe binding to ERα, Diethylstilbesterol.
In assay [7] the target is T2, ER α, P03372. As to the kind of experiment: peptide probe binding to ERα, 4-OH Tamoxifen.
Assay [8] deals with T1, ER β, Q92731. Nature of the assay: peptide probe binding to ERβ, Estriol.
Assay [9] has as its target T2, ER α, P03372. Nature of the assay: peptide probe binding to ERα, Nafoxidine.
The target in assay [10] is T2, ER α, P03372. As to the kind of experiment: peptide probe binding to ERα, Buffer.
Assay [11] deals with T1, ER β, Q92731. Nature of the assay: peptide probe binding to ERβ, 17α-Estradiol.
Assay [12] deals with T1, ER β, Q92731. Nature of the assay: peptide probe binding to ERβ, Buffer.
The target of assay [13] is T2, ER α, P03372. As to the kind of experiment: peptide probe binding to ERα, 17α-Estradiol.
The target in assay [14] is T2, ER α, P03372. Nature of the assay: peptide probe binding to ERα, ICI 182,780.
Assay [15] addresses T2, ER α, P03372. As to the kind of experiment: peptide probe binding to ERα, Raloxifene.
Assay [16] addresses T1, ER β, Q92731. As to the kind of experiment: phage ELISA, ICI 182,780 1 µM.
The target of assay [17] is T2, ER α, P03372. Nature of the assay: peptide probe binding to ERα, 17β-Estradiol.
Assay [18] deals with T1, ER β, Q92731. Nature of the assay: phage ELISA, raloxifene 1 µM.
The target in assay [19] is T2, ER α, P03372. Nature of the assay: peptide probe binding to ERα, Estriol.
Assay [20] concerns the target T1, ER β, Q92731. Nature of the assay: phage ELISA, clomiphene 10 µM.
For assay [21], the target named is T2, ER α, P03372. Nature of the assay: peptide probe binding to ERα, Clomiphene.
Assay [22] concerns the target T1, ER β, Q92731. As to the kind of experiment: peptide probe binding to ERβ, Diethylstilbesterol.
Assay [23] addresses T3, ER β (UniProt Q92731 1-530, limits assumed).
T3 construct: In vitro; also called estrogen receptor β; ERβ-ERE
Nature of the assay: peptide probe binding to ERβ, 4-OH Tamoxifen.

In assay [24] the target is T4, ER α (UniProt P03372 1-595, limits assumed).
T4 construct: also called estrogen receptor α; ERα-ERE
T4 sequence (looked up): T2 chain
Nature of the assay: peptide probe binding to ERα, 17α-Estradiol.

The target of assay [25] is T4, ER α. Nature of the assay: peptide probe binding to ERα, 17β-Estradiol.
Assay [26] deals with T3, ER β. As to the kind of experiment: peptide probe binding to ERβ, Clomiphene.
The target of assay [27] is T3, ER β. Nature of the assay: peptide probe binding to ERβ, Buffer.
Assay [28] deals with T3, ER β. Nature of the assay: peptide probe binding to ERβ, Diethylstilbesterol.
Assay [29] concerns the target T3, ER β. As to the kind of experiment: peptide probe binding to ERβ, Raloxifene.
Assay [30] addresses T4, ER α. As to the kind of experiment: peptide probe binding to ERα, ICI 182,780.
Assay [31] has as its target T3, ER β. Nature of the assay: peptide probe binding to ERβ, 17α-Estradiol.
In assay [32] the target is T3, ER β. Nature of the assay: peptide probe binding to ERβ, 17β-Estradiol.
For assay [33], the target named is T4, ER α. Nature of the assay: peptide probe binding to ERα, Raloxifene.
The target of assay [34] is T4, ER α. Nature of the assay: peptide probe binding to ERα, Buffer.
For assay [35], the target named is T3, ER β. As to the kind of experiment: peptide probe binding to ERβ, ICI 182,780.
Assay [36] addresses T3, ER β. Nature of the assay: peptide probe binding to ERβ, Estriol.
The target of assay [37] is T4, ER α. As to the kind of experiment: peptide probe binding to ERα, GW7604.
Assay [38] has as its target T4, ER α. As to the kind of experiment: peptide probe binding to ERα, Diethylstilbesterol.
In assay [39] the target is T3, ER β. Nature of the assay: peptide probe binding to ERβ, Nafoxidine.
In assay [40] the target is T4, ER α. Nature of the assay: peptide probe binding to ERα, Nafoxidine.
Assay [41] deals with T4, ER α. As to the kind of experiment: peptide probe binding to ERα, Estriol.
For assay [42], the target named is T3, ER β. As to the kind of experiment: phage ELISA, ICI 182,780 1 µM.
Assay [43] deals with T3, ER β. Nature of the assay: peptide probe binding to ERβ, GW 7604.
Assay [44] addresses T4, ER α. As to the kind of experiment: peptide probe binding to ERα, 4-OH Tamoxifen.
Assay [45] concerns the target T4, ER α. Nature of the assay: affinity of phage class for unliganded ER α.
The target of assay [46] is T4, ER α. As to the kind of experiment: phage ELISA, ICI 182,780 1 µM.

With SAPRATISHYLMGG (modifications not checked) [α/β II], the Equiv. with ER β, Q92731 [1] stood at 0%.

In the case of SSNHQSSRLIELLSR (modifications not checked) [phage 4 (Table 2)], the Equiv. in the assay with ER α, P03372 [2] was 0%; with ER β, Q92731 [3] it was 0%; with ER β, Q92731 [5], 100%; with ER α, P03372 [6], 71%; with ER α, P03372 [7] it was 0%; in the assay with ER β, Q92731 [8] it was 81%. For the same molecule, the Equiv. in the assay with ER α, P03372 [9] was determined as 0%; with ER α, P03372 [10], 0%; with ER β, Q92731 [11] it was 44%; with ER β, Q92731 [12], 0%; with ER α, P03372 [13], 53%; with ER α, P03372 [14], 0%. In addition, the Equiv. with ER α, P03372 [15] was determined as 0%; with ER α, P03372 [17] it was 100%; with ER α, P03372 [19], 65%; with ER α, P03372 [21], 0%; with ER β, Q92731 [22], 68%. Moreover, the phage ELISA grade amounted to 0 in the assay with ER β, Q92731 [4]; 0 with ER β, Q92731 [16]; 0 with ER β, Q92731 [18]; 0 in the assay with ER β, Q92731 [20].

Consider SSPGSREWFKDMLSR (also called α/β V; AB5) [14T-β], for which the Equiv. with ER β [23] was 100%; with ER α [24], 0%; with ER α [25] it was 0%; in the assay with ER β [26], 13%; with ER β [27], 0%; with ER β [28] it was 0%. Also, the Equiv. with ER β [29], with ER α [30], with ER β [31], with ER β [32], with ER α [33] and with ER α [34] was 0% throughout. The Equiv. in the assay with ER β [35], in the assay with ER β [36], in the assay with ER α [37], in the assay with ER α [38], with ER β [39] and with ER α [40] was 0% throughout. Besides, the results for the Equiv. in the assay with ER α [41], in the assay with ER β [43] and in the assay with ER α [44] were 0%, 0% and 100%, respectively. Besides, the “phage ELISA grade” value with ER β [42] came to 0.

Regarding HGPLTLNLLRSSGG [#41 ER + estradiol (Table 3)], the binding result with ER α [45] is recorded as “binds”.

Turning to SRLPPSVFSMCGSEVCLSR (also called 9T-β; 9Tβ) [T1-10], the Equiv. with ER α [30] was -100%; with ER α [33], 0%; in the assay with ER α [34] it was 0%; in the assay with ER β [36], -75%; in the assay with ER α [37] it was 0%; with ER α [38], 0%. The Equiv. in the assay with ER α [44] was determined as 100%. Moreover, in the assay with ER α [46], the “phage ELISA grade” value is 0.
